# Where a chain is given by its changes, count along the chain named. Names and notes keep the numbering of the source.
# T1: human AMHRII (anti-Mullerian hormone receptor type 2) (human, UniProt Q16671 18-573)
# T1 construct: whole, on cells; also called AMHR2; human AMHR2
# T1 sequence (looked up): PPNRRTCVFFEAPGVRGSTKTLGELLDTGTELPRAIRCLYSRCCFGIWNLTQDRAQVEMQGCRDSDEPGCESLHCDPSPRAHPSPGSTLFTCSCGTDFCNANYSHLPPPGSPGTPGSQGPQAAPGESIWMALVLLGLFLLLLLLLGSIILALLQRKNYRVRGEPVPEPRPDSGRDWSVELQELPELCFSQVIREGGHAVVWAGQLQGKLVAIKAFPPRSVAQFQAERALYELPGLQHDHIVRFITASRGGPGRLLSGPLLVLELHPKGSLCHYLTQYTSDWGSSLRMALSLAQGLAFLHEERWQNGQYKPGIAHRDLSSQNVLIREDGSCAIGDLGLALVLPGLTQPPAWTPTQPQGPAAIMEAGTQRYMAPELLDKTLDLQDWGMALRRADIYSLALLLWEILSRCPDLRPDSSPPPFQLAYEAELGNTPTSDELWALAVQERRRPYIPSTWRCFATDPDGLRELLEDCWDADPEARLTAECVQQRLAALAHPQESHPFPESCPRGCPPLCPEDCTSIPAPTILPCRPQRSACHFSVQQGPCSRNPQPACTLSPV
# B1: 31D9B3 VH1.2-VL2.1 hIgG1 (antibody, V domains shown)
# VH: QVQLVQSGAEVKKPGASVKVSCKASGYTFTDYWVSWVRQAPGQGLEWMGEIYPKNDVSNFNEKFKGRVTMTTDTSTSTAYMELRSLRSDDTAVYYCARQRDYWGQGTLVTVSS
# VL: DVVMTQSPLSLPVTLGQPASISCRSSQSLEYGSGYTYLEWYLQRPGQSPRLLIYGVSNRFSGVPDRFSGSGSGTDFTLKISRVEAEDVGVYYCFQATHDPNTFGQGTKLEIK
# notes: Humanized, PTM de-risked, human IgG1; also called 31D9B3 VH1.2-VL2.1 hlgG1
# B2: 31D9B3 VH1.3-VL2.1 hIgG1 (antibody, V domains shown)
# VH: B1 VH with D56Q
# VL: B1 VL
# notes: Humanized, PTM de-risked, human IgG1; also called 31D9B3 VH1.3-VL2.1 hlgG1
# B3: 31D9B3 VH1.2-VL2 hIgG1 (antibody, V domains shown)
# VH: B1 VH
# VL: B1 VL with S33D
# notes: Humanized, PTM de-risked (VH G55D), human IgG1; also called 31D9B3 VH1.2-VL2 hlgG1
# B4: 31D9B3 VH1.2-VL2.3 hIgG1 (antibody, V domains shown)
# VH: B1 VH
# VL: B1 VL with S33T
# notes: Humanized, PTM de-risked, human IgG1; also called 31D9B3 VH1.2-VL2.3 hlgG1
# B5: 31D9B3 VH1.3-VL2 hIgG1 (antibody, V domains shown)
# VH: B1 VH with D56Q
# VL: B1 VL with S33D
# notes: Humanized, PTM de-risked (VH G55Q), human IgG1; also called 31D9B3 VH1.3-VL2 hlgG1
# B6: 31D9B3 VH1.3-VL2.3 hIgG1 (antibody, V domains shown)
# VH: B1 VH with D56Q
# VL: B1 VL with S33T
# notes: Humanized, PTM de-risked, human IgG1; also called 31D9B3 VH1.3-VL2.3 hlgG1
# B7: 31D9B3 VH1.2-VL2.2 hIgG1 (antibody, V domains shown)
# VH: B1 VH
# VL: B1 VL with S33D, G34R
# notes: Humanized, PTM de-risked, human IgG1; also called 31D9B3 VH1.2-VL2.2 hlgG1
# B8: 31D9B3 H1L2 hIgG1 (antibody, V domains shown)
# VH: B1 VH with D56G
# VL: B1 VL with S33D
# notes: Humanized, human IgG1; also called 31D9B3 H1L2 hlgG1; 31D9B3 VH1-VL2 hlgG1
# B9: 94C4C3 H4L1 hIgG1 (antibody, V domains shown)
# VH: QVQLQESGPGLVKPSETLSLTCTVTGYSITSDYAWNWIRQFPGKKLEWMGYISYSGSISYNPSLKSRITISRDTSKNQFFLQLSSVTAADTAVYYCARSRYSWFDYWGQGTLVTVSS
# VL: EIVLTQSPGTLSLSPGERATLSCSASESVDTYGNSFMHWYQQKPGQAPRLLIYRASSLESGIPDRFSGSGSGTDFTLTISRLEPEDFAVYYCQQSNEDPYTFGGGTKVEIK
# notes: Humanized, human IgG1; also called 94C4C3 H4L1 hlgG1
# B10: 94C4C3 H3L3 hIgG1 (antibody, V domains shown)
# VH: B9 VH with T25S, K45G, Q82K
# VL: B9 VL with A47P, D64V, G72R, L82V, P84A, V108L
# notes: Humanized, human IgG1; also called 94C4C3 H3L3 hlgG1
# B11: 94C4C3 H3L4 hIgG1 (antibody, V domains shown)
# VH: B9 VH with T25S, K45G, Q82K
# VL: B9 VL with E1D, L13V, A47P, R49K, D64V, G72R, L82V, P84A, V108L
# notes: Humanized, human IgG1; also called 94C4C3 H3L4 hlgG1
# B12: 94C4C3 H3L2 hIgG1 (antibody, V domains shown)
# VH: B9 VH with T25S, K45G, Q82K
# VL: B9 VL with A47P, D64V, G72R
# notes: Humanized, human IgG1; also called 94C4C3 H3L2 hlgG1
# B13: 94C4C3 H4L3 hIgG1 (antibody, V domains shown)
# VH: B9 VH
# VL: B9 VL with A47P, D64V, G72R, L82V, P84A, V108L
# notes: Humanized, human IgG1; also called 94C4C3 H4L3 hlgG1
# B14: 94C4C3 H4L4 hIgG1 (antibody, V domains shown)
# VH: B9 VH
# VL: B9 VL with E1D, L13V, A47P, R49K, D64V, G72R, L82V, P84A, V108L
# notes: Humanized, human IgG1; also called 94C4C3 H4L4 hlgG1
# B15: 94C4C3 H4L2 hIgG1 (antibody, V domains shown)
# VH: B9 VH
# VL: B9 VL with A47P, D64V, G72R
# notes: Humanized, human IgG1; also called 94C4C3 H4L2 hlgG1
# B16: 94C4C3 H3L1 hIgG1 (antibody, V domains shown)
# VH: B9 VH with T25S, K45G, Q82K
# VL: B9 VL
# notes: Humanized, human IgG1; also called 94C4C3 H3L1 hlgG1
# B17: 31D9B3 H3L1 hIgG1 (antibody, V domains shown)
# VH: B1 VH with K13V, V20M, A40S, M48I, D56G, M70L, T72V, T74K, A97T, T107V
# VL: B1 VL with S33D, Y41F, L42Q, L51R
# notes: Humanized, human IgG1; also called 31D9B3 H3L1 hlgG1
# B18: 31D9B3 H2L2 hIgG1 (antibody, V domains shown)
# VH: B1 VH with K12V, M48I, D56G, T72V, A97T
# VL: B1 VL with S33D
# notes: Humanized, human IgG1; also called 31D9B3 H2L2 hlgG1
# B19: 31D9B3 H2L3 hIgG1 (antibody, V domains shown)
# VH: B1 VH with K12V, M48I, D56G, T72V, A97T
# VL: B1 VL with S33D, S68I, Q105A
# notes: Humanized, human IgG1; also called 31D9B3 H2L3 hlgG1
# B20: 31D9B3 H2L4 hIgG1 (antibody, V domains shown)
# VH: B1 VH with K12V, M48I, D56G, T72V, A97T
# VL: B1 VL with M4L, S33D, R50Q, S68I, A85P, Q105A
# notes: Humanized, human IgG1; also called 31D9B3 H2L4 hlgG1
# B21: 31D9B3 H1L1 hIgG1 (antibody, V domains shown)
# VH: B1 VH with D56G
# VL: B1 VL with S33D, Y41F, L42Q, L51R
# notes: Humanized, human IgG1; also called 31D9B3 H1L1 hlgG1
# B22: 31D9B3 H1L3 hIgG1 (antibody, V domains shown)
# VH: B1 VH with D56G
# VL: B1 VL with S33D, S68I, Q105A
# notes: Humanized, human IgG1; also called 31D9B3 H1L3 hlgG1
# B23: 31D9B3 H2L1 hIgG1 (antibody, V domains shown)
# VH: B1 VH with K12V, M48I, D56G, T72V, A97T
# VL: B1 VL with S33D, Y41F, L42Q, L51R
# notes: Humanized, human IgG1; also called 31D9B3 H2L1 hlgG1
# B24: 31D9B3 H1L4 hIgG1 (antibody, V domains shown)
# VH: B1 VH with D56G
# VL: B1 VL with M4L, S33D, R50Q, S68I, A85P, Q105A
# notes: Humanized, human IgG1; also called 31D9B3 H1L4 hlgG1
# B25: 108F3D1E9 H4L1 hIgG1 (antibody, V domains shown)
# VH: B9 VH with T25S, Y33F, K45G, Y54F, I58T, A89E, R98G, D105A
# VL: DIQMTQSPSSLSASVGDRVTITCRASESVDTYGNSFMHWYQQKPGKAPKLLIYRASNLESGVPSRFSGSGSGTDFTLTISSLQPEDFATYYCQQSNEDPYTFGGGTKVEIK
# notes: Humanized, human IgG1; also called 108F3D1E9 H4L1 hlgG1
# B26: 108F3D1E9 H4L4 hIgG1 (antibody, V domains shown)
# VH: B9 VH with T25S, Y33F, K45G, Y54F, I58T, A89E, R98G, D105A
# VL: DIVLTQSPSSLSVSVGDRATITCRASESVDTYGNSFMHWYQQKPGQPPKLLIYRASNLESGIPARFSGSGSRTDFTLTISSVQPEDFATYYCQQSNEDPYTFGGGTKLEIK
# notes: Humanized, human IgG1; also called 108F3D1E9 H4L4 hlgG1
# B27: 108F3D1E9 H4L3 hIgG1 (antibody, V domains shown)
# VH: B9 VH with T25S, Y33F, K45G, Y54F, I58T, A89E, R98G, D105A
# VL: B26 VL with V13A, A19V, R72G, L108V
# notes: Humanized, human IgG1; also called 108F3D1E9 H4L3 hlgG1
# B28: 108F3D1E9 H4L2 hIgG1 (antibody, V domains shown)
# VH: B9 VH with T25S, Y33F, K45G, Y54F, I58T, A89E, R98G, D105A
# VL: B25 VL with M4L, A47P, V62I
# notes: Humanized, human IgG1; also called 108F3D1E9 H4L2 hlgG1
# Biological target: T1, human AMHRII (anti-Mullerian hormone …)
# Experiment: FACS on CHO-K1 cells over-expressing human AMHR2
# Experimental: (§1) CHO-K1 cells over-expressed AMHR2 were harvested from flasks. 100 μl of 1×10⁶ cells/ml of cells were incubated with the humanized antibodies in 3-fold serial dilutions starting from 300 nM to 0.001 nM for 30 minutes on ice. After being washed with 200 μl of FACS buffer twice, cells were incubated with secondary antibody for 30 minutes on ice. Cells were washed with 200 μl of FACS buffer twice and analyzed by FACS.
Binder,EC50 [nM],Top (MFI)
B1,5.68,10600
B2,1.2,10900
B3,1.51,26800
B4,0.617,12900
B5,1.18,28000
B6,0.38,12700
B7,0.856,22000

# Biological target: T1, human AMHRII (anti-Mullerian hormone …)
# Experiment: FACS on CHO-K1 cells over-expressing human AMHR2
# Remark: another data set of the same source
# Experimental: as §1
Binder,EC50 [nM],Top (MFI)
B8,1.06,26700

# Biological target: T1, human AMHRII (anti-Mullerian hormone …)
# Experiment: FACS on CHO-K1 cells over-expressing human AMHR2
# Remark: another data set of the same source
# Experimental: as §1
Binder,EC50 [nM],Top (MFI)
B9,1.12,49500
B10,1.03,46300
B11,1.35,48100
B12,1.23,47700
B13,1.16,51100
B14,1.09,57900
B15,1.02,48700
B16,1.32,51000

# Biological target: T1, human AMHRII (anti-Mullerian hormone …)
# Experiment: FACS on Rko cells over-expressing human AMHR2
# Experimental: as §1, with “Rko” for “CHO-K1”, “over-expressing” for “over-expressed”, “primary PTM” for “the humanized”
Binder,EC50 [nM],Top (MFI)
B8,1.21,18300
B3,1.35,18200
B5,0.976,17900
B7,0.878,16300

# Biological target: T1, human AMHRII (anti-Mullerian hormone …)
# Experiment: FACS on CHO-K1 cells over-expressing human AMHR2
# Remark: another data set of the same source
# Experimental: as §1
Binder,EC50 [nM],Top (MFI)
B17,3.01,19600

# Biological target: T1, human AMHRII (anti-Mullerian hormone …)
# Experiment: FACS on CHO-K1 cells over-expressing human AMHR2
# Remark: another data set of the same source
# Experimental: as §1
Binder,EC50 [nM],Top (MFI)
B8,1.49,36200
B18,1.58,37900
B19,1.28,36700
B20,1.67,39200
B21,89.1,8940
B22,1.36,34700
B23,22.5,19100
B24,1.42,34100

# Biological target: T1, human AMHRII (anti-Mullerian hormone …)
# Experiment: FACS on CHO-K1 cells over-expressing human AMHR2
# Remark: another data set of the same source
# Experimental: as §1
Binder,EC50 [nM],Top (MFI)
B25,0.55,64400
B26,0.65,70600
B27,0.74,67300
B28,0.68,67900

# Reference: US20240400701A1 (LANOVA MEDICINES DEVELOPMENT, published 2024)
